The record followed here is patent US20260263521A1 (AIMED BIO, published 2026).

Experiment [1] deals with T1, human CD200R1 expressed on cells (Jurkat-CD200R1, U937-CD200R1, HH cells) (human, UniProt Q8TD46 25-348).
T1 construct: whole, on cells; also called HH (CRL-2105); cell surface-expressed CD200R1
T1 sequence (looked up): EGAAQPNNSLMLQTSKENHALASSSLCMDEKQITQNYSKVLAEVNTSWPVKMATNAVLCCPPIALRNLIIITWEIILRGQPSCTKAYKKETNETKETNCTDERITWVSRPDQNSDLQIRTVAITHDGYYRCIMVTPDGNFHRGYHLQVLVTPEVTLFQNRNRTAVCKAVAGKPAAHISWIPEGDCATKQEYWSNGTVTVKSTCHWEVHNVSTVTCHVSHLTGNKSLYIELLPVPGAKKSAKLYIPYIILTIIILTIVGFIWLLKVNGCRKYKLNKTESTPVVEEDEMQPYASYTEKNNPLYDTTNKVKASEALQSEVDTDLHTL
In words: flow cytometry on Jurkat-CD200R1 and HH cells, 500 nM antibody in IgG1 form. The procedure:
The cells were washed by centrifugation at 130 g for 5 minutes. The cells were seeded onto 96-well round-bottom plates (SPL, #34296) at a density of 1×10⁵ cells/well in Flow cytometry staining buffer (Invitrogen, #00-4222-26) or FACS buffer. […] After incubation for 1 hour at 4° C., the cells were treated with Alexa-647 Goat anti-human IgG (H+L) cross-adsorbed secondary antibody (Invitrogen, #A21445) and incubated at 4° C. for an additional 30 minutes. After washing twice with FACS buffer, flow cytometry analysis was performed using a Novocyte Flow cytometer (Agilent).

The target of experiment [2] is T1, human CD200R1 expressed on cells …. In words: flow cytometry, HH cells; drawn table. A general note: In flow cytometry, cells or beads pass a laser one at a time.
Experiment [3] deals with T2, human CD200R1 recombinant protein (construct not stated) (human, UniProt Q8TD46 27-266, limits assumed).
T2 sequence (looked up): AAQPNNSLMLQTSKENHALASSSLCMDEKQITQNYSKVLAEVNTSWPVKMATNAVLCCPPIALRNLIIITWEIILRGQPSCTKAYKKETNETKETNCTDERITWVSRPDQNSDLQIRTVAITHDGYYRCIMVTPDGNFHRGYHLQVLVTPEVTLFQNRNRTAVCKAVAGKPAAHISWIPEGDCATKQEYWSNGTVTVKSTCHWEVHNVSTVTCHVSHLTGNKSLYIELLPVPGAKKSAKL
In words: ELISA on human CD200R1, O.D 450 nm, 0.0192-300 nM; panel 'P001_CD200R1 human 1'. The procedure: 96-well plates were coated with human CD200R1 (R&D systems, 3414-CD) and mouse CD200R1 protein (R&D systems, 2554-CD) at a concentration of 2 μg/mL at 4° C. for 16 hours and then were blocked with 3% skim milk.
Color was developed with a TMB substrate solution (Thermo Scientific, 34029, 1-Step™ TMB-ELISA Ultra Substrate Solution). The color reaction was stopped with stop solution (Invitrogen, SS04, ELISA Stop Solution). The absorbance was measured at an optical density of 450 nm.
The secondary engineered antibodies were evaluated by ELISA in the same manner as in Examples described above.
(ELISA stands for enzyme-linked immunosorbent assay.)

The target in experiment [4] is T1, human CD200R1 expressed on cells …. In words: flow cytometry, HH cells; drawn table, row EC50.
Experiment [5] has as its target T3, human CD200RLa (Sino Biological, 11620-H08H) recombinant protein (human, UniProt Q6Q8B3 24-239).
T3 construct: Bought; construct not described
T3 sequence (looked up): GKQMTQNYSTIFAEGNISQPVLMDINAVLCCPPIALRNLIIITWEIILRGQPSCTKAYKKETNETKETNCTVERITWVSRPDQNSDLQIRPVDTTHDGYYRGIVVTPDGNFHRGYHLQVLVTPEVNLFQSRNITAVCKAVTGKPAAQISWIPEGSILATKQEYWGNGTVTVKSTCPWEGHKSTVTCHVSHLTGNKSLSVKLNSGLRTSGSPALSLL
In words: ELISA, plate-bound human CD200RLa (2 ug/mL), antibody 0.0192-300 nM, O.D 450 nm; panel 'recombinant human CD200RLa'. The method in brief: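 Plates coated overnight (16 h, 4° C) with human or cynomolgus CD200RLa recombinant protein, blocked with 3% skim milk; bound antibody detected by TMB colour development, reaction stopped before reading.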

For experiment [6], the target named is T4, Hybrid CD200R1 MH (mouse;human, UniProt Q9ES57;Q8TD46).
T4 construct: single domain; mouse D1 over human D2; also called MH hybrid domain; P001 MH domain
T4 sequence (hybrid extracellular part, looked up): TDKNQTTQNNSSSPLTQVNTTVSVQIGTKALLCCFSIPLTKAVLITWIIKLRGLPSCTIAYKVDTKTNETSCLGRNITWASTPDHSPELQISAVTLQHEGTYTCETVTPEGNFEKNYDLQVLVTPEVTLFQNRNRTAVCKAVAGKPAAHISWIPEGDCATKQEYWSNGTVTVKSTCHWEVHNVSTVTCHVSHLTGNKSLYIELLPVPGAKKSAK
In words: ELISA, plate-bound MH hybrid (1 ug/mL), antibody 0.0192-300 nM, O.D 450 nm; panel 'P001 MH domain-4)'. As to the method: (§1) Recombinant proteins were produced from the extracellular Ig-like V-type domain and Ig-like C2-type domain of human CD200R1, each designed as human-mouse (HM hybrid domain) and mouse-human (MH hybrid domain) recombinant proteins. A 96-well plate was coated at a concentration of 1 μg/mL with each protein at 4° C. for 16 hours and blocked with 3% skim milk. […] After color development with TMB substrate solution (Thermo Scientific, 34029, 1-Step™ Ultra TMB-ELISA Substrate Solution), the color reaction was stopped with a stop solution (Invitrogen, SS04, ELISA Stop Solution), and the absorbance was measured at an O.D. of 450 nm.

For experiment [7], the target named is T2, human CD200R1 recombinant protein …. Briefly: hybridoma ELISA on human CD200R1.
The target in experiment [8] is T5, mouse CD200R1 protein (R&D systems, 2554-CD) (mouse, UniProt Q9ES57 26-238, limits assumed).
T5 construct: Bought; construct not described
T5 sequence (looked up): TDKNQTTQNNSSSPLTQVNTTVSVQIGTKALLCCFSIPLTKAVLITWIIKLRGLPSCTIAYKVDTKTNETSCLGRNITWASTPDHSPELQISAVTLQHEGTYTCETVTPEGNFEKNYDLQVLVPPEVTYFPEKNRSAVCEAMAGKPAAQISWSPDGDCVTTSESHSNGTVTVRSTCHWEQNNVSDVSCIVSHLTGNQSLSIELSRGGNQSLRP
In words: ELISA, plate-bound mouse CD200R1 (2 ug/mL), IgG 0.0192-300 nM, OD 450 nm; panel 'mouse CD200R1'. Put shortly:
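Wells coated with antigen at 2 μg/mL (4 °C, 16 h) and blocked with 3% skim milk before IgG addition. Bound antibody developed with TMB, reaction stopped, absorbance read at 450 nm.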

For experiment [9], the target named is T4, Hybrid CD200R1 MH. In words: ELISA, plate-bound MH hybrid (1 ug/mL), antibody 0.0192-300 nM, O.D 450 nm; panel 'P001 MH domain-1)'. The procedure: as §1
The target in experiment [10] is T4, Hybrid CD200R1 MH. In words: ELISA, plate-bound MH hybrid (1 ug/mL), antibody 0.0192-300 nM, O.D 450 nm; panel 'P001 MH domain-2)'. The procedure:
as §1

Experiment [11] has as its target T6, monkey CD200RLa (Sino Biological, 11576-C02H) recombinant protein (monkey (cyno), UniProt A0A2K5W6R0 30-246).
T6 construct: Bought; construct not described; also called cyno CD200RLa
T6 sequence: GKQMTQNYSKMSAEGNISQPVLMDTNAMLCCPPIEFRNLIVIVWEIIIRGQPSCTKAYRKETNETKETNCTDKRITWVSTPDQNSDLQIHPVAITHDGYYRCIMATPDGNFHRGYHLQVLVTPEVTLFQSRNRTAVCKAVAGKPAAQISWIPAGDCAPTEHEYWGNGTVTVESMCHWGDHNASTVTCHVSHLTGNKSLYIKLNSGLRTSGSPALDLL
Briefly: ELISA, plate-bound monkey CD200RLa (2 ug/mL), antibody 0.0192-300 nM, O.D 450 nm; panel 'recombinant cynomolgus CD200RLa/Fc'. As to the method:
96-well plates were coated with human CD200RLa (Sino Biological, 11620-H08H) and monkey CD200RLa (Sino Biological, 11576-C02H) recombinant proteins at a concentration of 2 μg/mL at 4° C. for 16 hours, and blocked with 3% skim milk for 1 hour. […] Color was developed with a TMB substrate solution (Thermo Scientific, 34029, 1-Step™ Ultra TMB-ELISA Substrate Solution). The color reaction was stopped with stop solution (Invitrogen, SS04, ELISA Stop Solution).

Where a chain is given by its changes, count along the chain named. Values joined by “and” are separate entries in the source; they are usually repeats but may differ in a detail not shown here. Equal values may be shown once. A value given as a limit tells only on which side of the number the result lay.

B1: P001018 (huOX108.1) (antibody, V domains shown)
VH: QVQLVQSGAEVKKPGASVKVSCKASGYTFTSYVMHWVRQAPGQGLEWMGYINPYNDDTNYNEKFKGRVTMTRDTSTSTVYMELSSLRSEDTAVYYCAREDYYGSRWGYWGQGTLVTVSS
VL: DIVLTQSPASLAVSPGQRATITCRASKSVSTSGYSYMHWYQQKPGQPPKLLIYLASNLESGVPARFSGSGSGTDFTLTINPVEANDTANYYCQHSRELLTFGQGTKVEIK
notes: also called humanized antibody P001018
Regarding B1, the “MFI normalized to P001017 (chimeric OX108), %” value (shortened to “MFI normalized to P001017 … %”) in [1] was above 50%. Further, in experiment [2], the “Geo mean (%) at 0.05 nM” value was found to be 2.1%, the “Geo mean (%) at 0.19 nM” value turned out to be 6.1%, the “Geo mean (%) at 0.78 nM” value is 15.8% and the “Geo mean (%) at 3.125 nM” value is 35.2%. For the same molecule, in experiment [2], the “Geo mean (%) at 12.5 nM” value was determined as 65.7%, the “Geo mean (%) at 50 nM” value turned out to be 79.7%, the “Geo mean (%) at 200 nM” value was 96.9% and the “Geo mean (%) at 800 nM” value stood at 100%. In addition, in [3], the concentration for a half-maximal effect (EC50 (read off the curve)) – broadly, the concentration giving half of the maximal effect – was ~2 nM and ~5 nM. Moreover, the EC50 (as a rule, the concentration giving half of the maximal effect) in experiment [4] is 6.64 nM. Further, the binding result in experiment [5] is recorded as “no binding (tested: 300 nM)”.

B2: 1H10 (hybridoma clone) (antibody, V domains shown)
VH: QVQLQQPGAELVKPGTSVKLSCKASGYNFTSYWINWVKLRPGQGLEWIGDINPGSGSTNYNEKFRSKATLTVGTSSSTAYMQLSSLASEDSALYYCAREDYYGSRFFYWGQGTLVTVSA
VL: DVVMTQTPLSLPVSLGDQASISCRSSQSLVHSNGNTYLHWYLQKPGQSPKLLIYKVSNRFSGVPDRFSGSGSGTDFTLKISRVEAEDLGVYFCSQSTHVTFGAGTKLELK
For the molecule B2, in the experiment with Hybrid CD200R1 MH [6], the binding result was “no binding (tested: 300 nM)”. In experiment [7], the “ELISA O.D.” value was at least 1.5 O.D.

B3: P001005 (IgG) (antibody, V domains shown)
VH: EVQLLESGGGLVQPGGSLRLSCAASGFTFSGYDMSWVRQAPGKGLEWVSQIYPGNGSKYYADSVKGRFTISRDNSKNALYLQMNSLRAEDTAVYYCAKDLQTWTSRRFDYWGQGTLVTVSS
VL: QSVLTQPPSASGTPGQRVTISCSGSSSNIGNNDVNWYQQLPGTAPKLLIYSNSHRPSGVPDRFSGSKSGTSASLAISGLRSEDGADYYCGTWDDSLNGYVFGGGTKLTVL
In the case of B3, the binding result (in experiment [8]; in experiment [5]; with Hybrid CD200R1 MH [9]) was “no binding (tested: 300 nM)” throughout.

B4: P001010 (IgG) (antibody, V domains shown)
VH: EVQLLESGGGLVQPGGSLRLSCAASGFTFSNYAMSWVRQAPGKGLEWVSSISPGGGSIYYADSVKGRFTISRDNSKNTLYLQMNSLRAEDTAVYYCARDPGQMFWPLFDYWGQGTLVTVSS
VL: B3 VL with S23T, N31S, D33N, N35S, S51D, N52D, G84E, T91S, D94A
For the molecule B4, the binding result (in experiment [8]; in experiment [5]; with Hybrid CD200R1 MH [10]) was “no binding (tested: 300 nM)” each time.

B5: P001008 (IgG) (antibody, V domains shown)
VH: EVQLLESGGGLVQPGGSLRLSCAASGFTFSSYDMSWVRQAPGKGLEWVSWISHGGGSIYYADSVKGRFTISRDNSKNTLYLQMNSLRAEDTAVYYCARDAPALMHSLFDYWGQGTLVTVSS
VL: B3 VL with N31S, D33H, S51Y, N52D, H54Q, G84E, T91S, D94A
For the molecule B5, the “MFI normalized to P001017 … %” value in experiment [1] is above 50%. The binding result (in experiment [8]; in experiment [11]; in experiment [5]; in the experiment with Hybrid CD200R1 MH [10]) was “no binding (tested: 300 nM)” in each case.

B6: P001004 (IgG) (antibody, V domains shown)
VH: EVQLLESGGGLVQPGGSLRLSCAASGFTFSDYYMSWVRQAPGKGLEWVSGIYPGDGSIYYADSVKGRFTISRDNSKNTLYLQMNSLRAEDAAVYYCAKGLDLYEPMAFDYWGQGTLVTVSS
VL: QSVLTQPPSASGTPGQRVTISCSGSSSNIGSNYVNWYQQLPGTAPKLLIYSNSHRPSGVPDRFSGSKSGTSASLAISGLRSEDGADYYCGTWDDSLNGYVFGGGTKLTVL
As for B6, the “MFI normalized to P001017 … %” value in experiment [1] was above 50%. Also, the binding result (in experiment [8]; in experiment [5]; with Hybrid CD200R1 MH [9]) was “no binding (tested: 300 nM)” each time.
